# According to patent publication US20250179143A1, “SYSTEMS AND METHODS FOR CHAPERONE-MEDIATED LIGAND EXCHANGE ON MHC-I AND MHC-RELATED MOLECULES USING CHICKEN TAPBPR” (priority 2022, published 2025):
# How the values were obtained:
# [1] = molecular target: peptide-deficient (empty) HLA-B*37:01/hb2m (human); assay: SPR, TAPBPR-biotin on streptavidin chip, UV-irradiated (empty) HLA as analyte; conditions: remark: other sources report otherwise
# [2] = molecular target: 96 HLA-I allotypes on single antigen beads (SABs); assay: SAB tetramer assay, ratio to W6/32 control
Binder,Kd [1] [µM],MFI ratio [2]
"human TAPBPR luminal domain (hTAPBPR), Q9BX59 22-405 (protein) KPHPAEGQWRAVDVVLDCFLAKDGAHRGALASSEDRARASLVLKQVPVLDDGSLEDFTDFQGGTLAQDDPPIIFEASVDLVQIPQAEALLHADCSGKEVTCEISRYFLQMTETTVKTAAWFMANMQVSGGGPSISLVMKTPRVTKNEALWHPTLNLPLSPQGTVRTAVEFQVMTQTQSLSFLLGSSASLDCGFSMAPGLDLISVEWRLQHKGRGQLVYSWTAGQGQAVRKGATLEPAQLGMARDASLTLPGLTIQDEGTYICQITTSLYRAQQIIQLNIQASPKVRLSLANEALLPTLICDIAGYYPLDVVVTWTREELGGSPAQVSGASFSSLRQSVAGTYSISSSLTAEPGSAGATYTCQVTHISLEEPLGASTQVVPPERR",7.02,
"mouse TAPBPR luminal domain (moTAPBPR) (protein, UniProt Q8VD31 21-412, looked up) TDPPTAPTTAERQRQPTDIILDCFLVTEDRHRGAFASSGDRERALLVLKQVPVLDDGSLEGITDFQGSTETKQDSPVIFEASVDLVQIPQAEALLHADCSGKAVTCEISKYFLQARQEATFEKAHWFISNMQVSRGGPSVSMVMKTLRDAEVGAVRHPTLNLPLSAQGTVKTQVEFQVTSETQTLNHLLGSSVSLHCSFSMAPGLDLTGVEWRLQHKGSGQLVYSWKTGQGQAKRKGATLEPEELLRAGNASLTLPNLTLKDEGNYICQISTSLYQAQQIMPLNILAPPKIQLHLANKDPLPSLVCSIAGYYPLDVGVTWIREELGGIPAQVSGASFSSLRQSTMGTYSISSTVMADPGPTGATYTCQVAHVSLEEPLTTSMRVLPNPEQRG",,< 5.8
